Measured values as given in IntAct's records for PubMed 31515488.

B1: "tRNA (guanine-N(7)-)-methyltransferase non-catalytic subunit WDR4" (Homo sapiens), P57081 (parent)
chain: MAGSVGLALCGQTLVVRGGSRFLATSIASSDDDSLFIYDCSAAEKKSQENKGEDAPLDQGSGAILASTFSKSGSYFALTDDSKRLILFRTKPWQCLSVRTVARRCTALTFIASEEKVLVADKSGDVYSFSVLEPHGCGRLELGHLSMLLDVAVSPDDRFILTADRDEKIRVSWAAAPHSIESFCLGHTEFVSRISVVPTQPGLLLSSSGDGTLRLWEYRSGRQLHCCHLASLQELVDPQAPQKFAASRIAFWCQENCVALLCDGTPVVYIFQLDARRQQLVYRQQLAFQHQVWDVAFEETQGLWVLQDCQEAPLVLYRPVGDQWQSVPESTVLKKVSGVLRGNWAMLEGSAGADASFSSLYKATFDNVTSYLKKKEERLQQQLEKKQRRRSPPPGPDGHAKKMRPGEATLSC
partner: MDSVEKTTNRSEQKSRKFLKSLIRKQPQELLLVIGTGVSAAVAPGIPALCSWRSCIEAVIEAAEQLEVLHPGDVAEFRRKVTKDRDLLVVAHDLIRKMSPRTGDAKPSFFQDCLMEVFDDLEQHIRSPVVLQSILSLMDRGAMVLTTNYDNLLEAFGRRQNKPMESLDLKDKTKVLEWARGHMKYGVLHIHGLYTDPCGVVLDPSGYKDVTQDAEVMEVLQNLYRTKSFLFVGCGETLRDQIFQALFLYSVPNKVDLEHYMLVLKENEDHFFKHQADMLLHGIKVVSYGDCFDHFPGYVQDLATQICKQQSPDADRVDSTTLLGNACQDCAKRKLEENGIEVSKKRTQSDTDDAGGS
B2: Coiled-coil domain-containing protein 33 (Homo sapiens), Q8N5R6-5 (parent)
chain: MGEPGPPSPPAPKAAPGLIDSFSEMNNYRRAMQKMAEDILSLRRQASILEGENRILRSRLAQQEEEEGQGKASEAQNTVSMKQKLLLSELDMKKLRDRVQHLQNELIRKNDREKELLLLYQAQQPQAALLKQYQGKLQKMKALEETVRHQEKVIEKMERVLEDRLQDRSKPPPLNRQQGKPYTGFPMLSASGLPLGSMGENLPVELYSVLLAENAKLRTELDKNRHQQAPIILQQQALPVDPGELGAGGDLTERLQETHGPGHSECTETLPAQDLLSGTSDKFNLLAKLEHAQSRILSLESQLEDSARRWGREKQDLATRLQEQEKGFRHPSNSIIIEQPVSDPPGVAPRGSGGGAGSHRTPKVTGP
B3: Protein LDOC1 (Homo sapiens), O95751 (parent)
chain: MVDELVLLLHALLMRHRALSIENSQLMEQLRLLVCERASLLRQVRPPSCPVPFPETFNGESSRLPEFIVQTASYMLVNENRFCNDAMKVAFLISLLTGEAEEWVVPYIEMDSPILGDYRAFLDEMKQCFGWDDDEDDDDEEEEDDY
partner: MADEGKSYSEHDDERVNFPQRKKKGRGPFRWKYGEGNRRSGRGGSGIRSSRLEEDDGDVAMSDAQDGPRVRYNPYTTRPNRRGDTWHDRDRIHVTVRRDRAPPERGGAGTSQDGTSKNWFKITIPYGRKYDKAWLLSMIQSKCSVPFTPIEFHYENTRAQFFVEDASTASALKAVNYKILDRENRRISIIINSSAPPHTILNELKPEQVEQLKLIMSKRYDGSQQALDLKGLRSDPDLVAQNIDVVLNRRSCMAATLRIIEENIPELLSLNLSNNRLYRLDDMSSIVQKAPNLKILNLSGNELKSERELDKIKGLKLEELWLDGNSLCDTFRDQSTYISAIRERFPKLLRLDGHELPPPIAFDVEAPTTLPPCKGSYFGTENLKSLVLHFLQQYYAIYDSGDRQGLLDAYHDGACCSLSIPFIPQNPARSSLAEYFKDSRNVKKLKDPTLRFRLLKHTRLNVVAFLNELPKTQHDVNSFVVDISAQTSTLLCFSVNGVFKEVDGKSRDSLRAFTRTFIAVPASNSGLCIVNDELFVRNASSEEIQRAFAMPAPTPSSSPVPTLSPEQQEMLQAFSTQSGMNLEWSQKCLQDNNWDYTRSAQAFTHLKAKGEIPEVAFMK
B4: Transcription initiation factor IIA subunit 1 (Homo sapiens), P52655 (parent)
chain: MANSANTNTVPKLYRSVIEDVINDVRDIFLDDGVDEQVLMELKTLWENKLMQSRAVDGFHSEEQQLLLQVQQQHQPQQQQHHHHHHHQQAQPQQTVPQQAQTQQVLIPASQQATAPQVIVPDSKLIQHMNASNMSAAATAATLALPAGVTPVQQILTNSGQLLQVVRAANGAQYIFQPQQSVVLQQQVIPQMQPGGVQAPVIQQVLAPLPGGISPQTGVIIQPQQILFTGNKTQVIPTTVAAPTPAQAQITATGQQQPQAQPAQTQAPLVLQVDGTGDTSSEEDEDEEEDYDDDEEEDKEKDGAEDGQVEEEPLNSEDDVSDEEGQELFDTENVVVCQYDKIHRSKNKWKFHLKDGIMNLNGRDYIFSKAIGDAEW
partner: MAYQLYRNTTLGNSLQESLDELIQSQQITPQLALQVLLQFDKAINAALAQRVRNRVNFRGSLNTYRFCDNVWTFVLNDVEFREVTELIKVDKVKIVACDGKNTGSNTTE
B5: E3 ubiquitin-protein ligase RNF8 (Homo sapiens), O76064 (parent)
chain: MGEPGFFVTGDRAGGRSWCLRRVGMSAGWLLLEDGCEVTVGRGFGVTYQLVSKICPLMISRNHCVLKQNPEGQWTIMDNKSLNGVWLNRARLEPLRVYSIHQGDYIQLGVPLENKENAEYEYEVTEEDWETIYPCLSPKNDQMIEKNKELRTKRKFSLDELAGPGAEGPSNLKSKINKVSCESGQPVKSQGKGEVASTPSDNLDPKLTALEPSKTTGAPIYPGFPKVTEVHHEQKASNSSASQRSLQMFKVTMSRILRLKIQMQEKHEAVMNVKKQTQKGNSKKVVQMEQELQDLQSQLCAEQAQQQARVEQLEKTFQEEEQHLQGLEIAQGEKDLKQQLAQALQEHWALMEELNRSKKDFEAIIQAKNKELEQTKEEKEKMQAQKEEVLSHMNDVLENELQCIICSEYFIEAVTLNCAHSFCSYCINEWMKRKIECPICRKDIKSKTYSLVLDNCINKMVNNLSSEVKERRIVLIRERKAKRLF
partner: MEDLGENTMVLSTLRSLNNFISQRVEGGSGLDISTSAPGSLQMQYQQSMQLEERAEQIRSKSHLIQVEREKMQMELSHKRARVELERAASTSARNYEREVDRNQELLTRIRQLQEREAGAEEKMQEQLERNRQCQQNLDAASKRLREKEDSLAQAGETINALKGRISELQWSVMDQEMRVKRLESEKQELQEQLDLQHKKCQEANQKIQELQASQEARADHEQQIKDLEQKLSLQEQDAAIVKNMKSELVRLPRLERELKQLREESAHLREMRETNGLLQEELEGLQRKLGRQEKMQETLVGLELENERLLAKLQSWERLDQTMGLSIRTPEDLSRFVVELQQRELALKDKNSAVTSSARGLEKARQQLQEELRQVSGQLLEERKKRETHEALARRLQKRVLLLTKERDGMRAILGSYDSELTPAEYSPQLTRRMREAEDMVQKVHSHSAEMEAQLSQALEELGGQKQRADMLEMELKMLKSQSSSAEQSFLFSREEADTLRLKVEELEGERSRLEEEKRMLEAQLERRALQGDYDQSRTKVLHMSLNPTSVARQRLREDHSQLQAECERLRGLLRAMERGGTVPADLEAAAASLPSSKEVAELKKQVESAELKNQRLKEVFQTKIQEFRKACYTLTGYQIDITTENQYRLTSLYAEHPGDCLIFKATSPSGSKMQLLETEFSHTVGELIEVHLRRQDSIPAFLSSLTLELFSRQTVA
B6: N-chimaerin (Homo sapiens), P15882 (parent)
chain: MALTLFDTDEYRPPVWKSYLYQLQQEAPHPRRITCTCEVENRPKYYGREFHGMISREAADQLLIVAEGSYLIRESQRQPGTYTLALRFGSQTRNFRLYYDGKHFVGEKRFESIHDLVTDGLITLYIETKAAEYIAKMTINPIYEHVGYTTLNREPAYKKHMPVLKETHDERDSTGQDGVSEKRLTSLVRRATLKENEQIPKYEKIHNFKVHTFRGPHWCEYCANFMWGLIAQGVKCADCGLNVHKQCSKMVPNDCKPDLKHVKKVYSCDLTTLVKAHTTKRPMVVDMCIREIESRGLNSEGLYRVSGFSDLIEDVKMAFDRDGEKADISVNMYEDINIITGALKLYFRDLPIPLITYDAYPKFIESAKIMDPDEQLETLHEALKLLPPAHCETLRYLMAHLKRVTLHEKENLMNAENLGIVFGPTLMRSPELDAMAALNDIRYQRLVVELLIKNEDILF
partner: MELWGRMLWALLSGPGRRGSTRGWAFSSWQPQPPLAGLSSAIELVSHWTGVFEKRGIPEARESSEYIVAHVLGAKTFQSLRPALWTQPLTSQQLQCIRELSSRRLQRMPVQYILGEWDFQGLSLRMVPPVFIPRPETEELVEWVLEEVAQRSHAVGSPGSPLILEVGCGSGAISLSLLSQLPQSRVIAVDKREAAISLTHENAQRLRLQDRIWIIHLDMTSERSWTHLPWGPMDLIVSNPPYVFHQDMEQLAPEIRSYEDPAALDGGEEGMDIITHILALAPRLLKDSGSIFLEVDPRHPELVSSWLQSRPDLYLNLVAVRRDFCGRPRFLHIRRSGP
B7: Meiotic recombination protein DMC1/LIM15 homolog (Homo sapiens), Q14565 (parent)
chain: MKEDQVVAEEPGFQDEEESLFQDIDLLQKHGINVADIKKLKSVGICTIKGIQMTTRRALCNVKGLSEAKVDKIKEAANKLIEPGFLTAFEYSEKRKMVFHITTGSQEFDKLLGGGIESMAITEAFGEFRTGKTQLSHTLCVTAQLPGAGGYPGGKIIFIDTENTFRPDRLRDIADRFNVDHDAVLDNVLYARAYTSEHQMELLDYVAAKFHEEAGIFKLLIIDSIMALFRVDFSGRGELAERQQKLAQMLSRLQKISEEYNVAVFVTNQMTADPGATMTFQADPKKPIGGHILAHASTTRISLRKGRGELRIAKIYDSPEMPENEATFAITAGGIGDAKE

Variants of: B1
Conditions: with FAM118A

Row | effect of a mutation on the interaction | Variant
1 | with no effect | A275T

Variants of: B2
Conditions: with smad3_human SMAD3, P84022
smad3_human SMAD3, P84022, sequence (P84022 whole entry, looked up): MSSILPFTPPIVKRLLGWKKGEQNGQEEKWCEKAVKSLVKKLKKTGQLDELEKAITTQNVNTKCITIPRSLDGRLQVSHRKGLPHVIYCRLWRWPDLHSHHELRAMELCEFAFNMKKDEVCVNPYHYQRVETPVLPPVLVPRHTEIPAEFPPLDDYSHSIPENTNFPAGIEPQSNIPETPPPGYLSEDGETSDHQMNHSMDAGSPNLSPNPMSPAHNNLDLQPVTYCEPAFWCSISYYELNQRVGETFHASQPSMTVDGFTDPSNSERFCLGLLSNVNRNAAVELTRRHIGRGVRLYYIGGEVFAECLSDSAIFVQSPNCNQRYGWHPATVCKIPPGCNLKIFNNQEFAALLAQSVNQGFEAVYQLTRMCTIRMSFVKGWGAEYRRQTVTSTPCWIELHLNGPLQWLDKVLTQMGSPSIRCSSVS

Row | effect of a mutation on the interaction | Variant
2 | with no effect | M25V
3 | with no effect | G196R
4 | with no effect | R30L
5 | disrupting interaction strength | P203L

Variants of: B2
Conditions: with aakb2_human PRKAB2, O43741
aakb2_human PRKAB2, O43741, sequence (O43741 whole entry): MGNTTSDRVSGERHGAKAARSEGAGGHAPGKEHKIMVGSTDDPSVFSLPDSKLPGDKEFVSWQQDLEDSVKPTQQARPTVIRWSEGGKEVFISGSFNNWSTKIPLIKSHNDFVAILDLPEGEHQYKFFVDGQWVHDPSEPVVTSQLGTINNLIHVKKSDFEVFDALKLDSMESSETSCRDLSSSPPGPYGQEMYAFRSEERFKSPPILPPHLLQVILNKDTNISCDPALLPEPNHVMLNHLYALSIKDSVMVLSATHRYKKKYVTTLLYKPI

Row | effect of a mutation on the interaction | Variant
6 | with no effect | M25V
7 | with no effect | G196R
8 | with no effect | R30L
9 | with no effect | P203L

Variants of: B2
Conditions: with blk_human BLK

Row | effect of a mutation on the interaction | Variant
10 | with no effect | M25V
11 | with no effect | G196R
12 | with no effect | R30L
13 | with no effect | P203L

Variants of: B3
Conditions: with nxf1_human NXF1, Q9UBU9

Row | effect of a mutation on the interaction | Variant
14 | disrupting interaction strength | L12H

Variants of: B4
Conditions: with t2ag_human GTF2A2, P52657

Row | effect of a mutation on the interaction | Variant
15 | with no effect | P208S

Variants of: B5
Conditions: with md1l1_human MAD1L1, Q9Y6D9

Row | effect of a mutation on the interaction | Variant
16 | with no effect | V310L

Variants of: B6
Conditions: with hemk1_human HEMK1, Q9Y5R4

Row | effect of a mutation on the interaction | Variant
17 | disrupting interaction strength | D115N

Variants of: B7
Conditions: with gors2_human GORASP2, Q9H8Y8

Row | effect of a mutation on the interaction | Variant
18 | with no effect | M200V
19 | with no effect | I288T

Variants of: B7
Conditions: with sdcb1_human SDCBP

Row | effect of a mutation on the interaction | Variant
20 | disrupting interaction strength | M200V
21 | disrupting interaction strength | I288T

Variants of: B7
Conditions: with kcd17_human KCTD17, Q8N5Z5
kcd17_human KCTD17, Q8N5Z5, sequence (Q8N5Z5 whole entry): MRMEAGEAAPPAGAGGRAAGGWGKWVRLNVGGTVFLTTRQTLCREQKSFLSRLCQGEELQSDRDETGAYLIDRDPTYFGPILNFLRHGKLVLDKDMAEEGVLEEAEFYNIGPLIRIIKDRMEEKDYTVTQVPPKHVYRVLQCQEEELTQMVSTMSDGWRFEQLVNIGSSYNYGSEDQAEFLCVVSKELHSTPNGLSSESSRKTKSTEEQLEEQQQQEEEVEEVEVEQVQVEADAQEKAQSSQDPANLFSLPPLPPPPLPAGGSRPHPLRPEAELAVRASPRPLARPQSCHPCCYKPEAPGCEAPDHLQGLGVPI

Row | effect of a mutation on the interaction | Variant
22 | disrupting interaction strength | M200V

Variants of: B7
Conditions: with psa3_human PSMA3, P25788
psa3_human PSMA3, P25788, sequence (P25788 whole entry): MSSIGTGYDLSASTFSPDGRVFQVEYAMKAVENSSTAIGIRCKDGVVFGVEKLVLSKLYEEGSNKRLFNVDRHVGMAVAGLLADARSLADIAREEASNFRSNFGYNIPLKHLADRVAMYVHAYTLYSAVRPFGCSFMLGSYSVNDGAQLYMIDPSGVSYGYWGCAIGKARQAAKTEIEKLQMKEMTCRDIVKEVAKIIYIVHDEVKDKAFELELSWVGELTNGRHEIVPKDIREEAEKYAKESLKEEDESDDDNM

Row | effect of a mutation on the interaction | Variant
23 | with no effect | M200V
24 | disrupting interaction strength | I288T
